Measured values as given in patent publication EP4740967A1 (Shanghai Escugen Biotechnology Co., Ltd., dated 2026).

Key:
Test in all cases: cell-based or functional assay
human Claudin18.2 [1] = target: T1, human Claudin18.2 (human, UniProt P56856 1-261)
T1 sequence (looked up): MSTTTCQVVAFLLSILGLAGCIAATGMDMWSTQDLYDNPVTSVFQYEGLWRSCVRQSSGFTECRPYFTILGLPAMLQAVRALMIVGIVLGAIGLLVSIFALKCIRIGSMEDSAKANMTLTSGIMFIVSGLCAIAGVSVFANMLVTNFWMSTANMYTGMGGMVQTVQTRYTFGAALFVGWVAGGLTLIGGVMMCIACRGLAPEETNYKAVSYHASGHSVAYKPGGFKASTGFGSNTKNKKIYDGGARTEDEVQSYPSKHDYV

human Claudin18.2 [2] = target: T1, human Claudin18.2; remark: listed apart in the source
human Claudin18.2 [3] = target: T1, human Claudin18.2; remark: listed apart in the source
human Claudin18.2 [4] = target: T1, human Claudin18.2; remark: listed apart in the source

B1: 9D1-LD-38 (antibody, human IgG1, kappa, V domains shown)
VH: QIQLVQSGAEVKKPGASVKISCKASGYSFTDYHMNWVRQAPGKGLEWIGNIDPYYGSPTYNHKFKGRVTLTVDTSTSTAYMELSSLRSEDTAVYYCANYGRGNSFPYWGQGTLVTVSS
VL: DIVMTQSPSSLAVSLGERATINCKSSQSLLNSGNQRNYLTWYQQKPGQPPKLLIYWASTRESGVPDRFSGSGSGTDFTLTISSLQAEDVAVYYCQNDYSFPFTFGQGTKLEIKR
modifications: LD-38 linker-drug (Exatecan) on reduced interchain cysteine; main conjugation form one LD-38 molecule per light chain; LD-38 linker-drug (Exatecan) on reduced interchain cysteines; main conjugation form three LD-38 molecules per heavy chain (DAR 8 nominal, 7.8 measured)
IC50 of inhibition of proliferation of MC38-hClaudin18.2 cells (AlamarBlue cell viability, 72 h) (human Claudin18.2 [1]): 0.632 nM
IC50 of in vitro cell killing on HEK293-hClaudin18.2 cells (AlamarBlue cell viability, 72 h) (human Claudin18.2 [2]): 0.09 nM
IC50 of in vitro cell killing on MC38-hClaudin18.2 cells (AlamarBlue cell viability) (human Claudin18.2 [3]): 1.36 nM
IC50 of in vitro cell killing on NUGC4-hClaudin18.2 cells (CCK-8 cell viability, 120 h) (human Claudin18.2 [4]): 0.728 nM
